Test results: patent publication US20220372154A1 (APEXIGEN, published 2022)
Numbering of substitutions follows the chain as printed.

T1: cynomolgus TNFR2-His tagged protein (cynomolgus, UniProt A0A2K5VET2 132-366)
T1 construct: also called Cyno TNFR2; cynomolgus TNFR2 protein; not shown: His tag
T1 sequence: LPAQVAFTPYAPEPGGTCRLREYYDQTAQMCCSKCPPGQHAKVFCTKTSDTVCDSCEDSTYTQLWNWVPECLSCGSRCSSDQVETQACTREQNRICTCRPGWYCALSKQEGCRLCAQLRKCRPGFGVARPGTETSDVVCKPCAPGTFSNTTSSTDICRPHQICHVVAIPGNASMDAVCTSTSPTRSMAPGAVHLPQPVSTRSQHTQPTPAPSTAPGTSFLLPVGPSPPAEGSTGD

T2: human TNFR2-His tagged protein (soluble) (human, UniProt P20333 23-257)
T2 construct: also called hTNFR2 (soluble); soluble TNFR2-His; not shown: His tag
T2 sequence (looked up): T1 sequence with G16S, P36S, Q117P, H164N, A210E, G216S, V223M

T3: TNFR-Fc (UniProt P20333 23-257, limits assumed)
T3 construct: Printed only as TNFR-Fc; not shown: Fc part
T3 sequence (looked up): T1 sequence with G16S, P36S, Q117P, H164N, A210E, G216S, V223M

T4: human TNFR2 expressed on cells (human, UniProt P20333 23-461)
T4 construct: whole, on cells; also called hTNFR2 (cell); CHO-TNFR2
T4 sequence (looked up): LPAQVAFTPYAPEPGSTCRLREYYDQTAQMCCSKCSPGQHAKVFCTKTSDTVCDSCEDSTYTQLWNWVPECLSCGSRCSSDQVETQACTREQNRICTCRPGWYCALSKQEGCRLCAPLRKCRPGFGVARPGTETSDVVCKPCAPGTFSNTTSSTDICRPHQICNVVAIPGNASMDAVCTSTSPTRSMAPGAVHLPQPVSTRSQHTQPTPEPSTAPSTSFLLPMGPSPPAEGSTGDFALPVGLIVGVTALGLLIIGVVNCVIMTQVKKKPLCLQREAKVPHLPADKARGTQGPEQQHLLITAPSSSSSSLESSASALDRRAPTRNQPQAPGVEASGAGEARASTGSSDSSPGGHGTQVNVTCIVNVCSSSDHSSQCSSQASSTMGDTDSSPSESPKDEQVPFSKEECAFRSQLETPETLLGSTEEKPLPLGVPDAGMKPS

T5: TNFR2 CRD4 peptide (peptide 5; aa 146-174 of mature TNFR2) (human)
T5 construct: Range counted on mature TNFR2; also called peptide five; bin 5
T5 peptide: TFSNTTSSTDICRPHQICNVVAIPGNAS

T6: soluble mouse TNFR2 (mouse, UniProt P25119 23-258, limits assumed)
T6 sequence (looked up): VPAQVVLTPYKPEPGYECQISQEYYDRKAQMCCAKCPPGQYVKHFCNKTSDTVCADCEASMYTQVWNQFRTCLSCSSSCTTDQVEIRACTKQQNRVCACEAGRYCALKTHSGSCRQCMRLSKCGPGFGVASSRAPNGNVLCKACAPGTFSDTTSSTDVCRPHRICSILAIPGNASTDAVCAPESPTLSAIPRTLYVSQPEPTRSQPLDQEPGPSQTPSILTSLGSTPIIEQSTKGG

B1: humanized antibody h600_23_24_H (antibody, V domains shown)
VH: EVQLVESGGGLVQPGGSLRLSCAASGFSLNSYGVNWVRQAPGKGLEWVGGINTGGSTYYANWAKGRFTISRDNSKNTLYLQMNSLRAEDTAVYYCARTSGNNVYNYFTLWGQGTLVTVSS
VL: DIQMTQSPSSLSASVGDRVTITCQASQSIPSLLAWYQQKPGKAPKLLIYAPSTLASGVPSRFSGSGSGTDFTLTISSLQPEDFATYYCQSYYYGDNTYNNIFGGGTKVEIK
B2: humanized antibody h600_HB_28B7.3 (antibody, V domains shown)
VH: EVQLVESGGGLVQPGGSLRLSCAASGFSLNSHYMIWVRQAPGKGLEWVGIITSSDYIYYARWAKGRFTISRDNSKNTLYLQMNSLRAEDTAVYYCARYNYDDDGELFNLWGQGTLVTVSS
VL: DIQMTQSPSSLSASVGDRVTITCQSSQSIDANNDLAWYQQKPGKAPKLLIYLASKLASGVPSRFSGSGSGTDFTLTISSLQPEDFATYYCLGGYDDDADNTFGGGTKVEIK
notes: also called h600_23_28B7
B3: humanized antibody clone 4 (taken as h600_23_4) (antibody, V domains shown)
VH: EVQLVESGGGLVQPGGSLRLSCAASGIDLSSYTMGWVRQAPGKGLEWVGFISSSGHTYYANWAKGRFTISRDNSKNTLYLQMNSLRAEDTAVYYCAREGGYGGYDYTGIFNLWGQGTLVTVSS
VL: DIQMTQSPSTLSASVGDRVTITCQATESISSWLAWYQQKPGKAPKLLIYGASTLESGVPSRFSGSGSGTEFTLTISSLQPDDFATYYCQQGYIYTNVDNTFGGGTKVEIK
B4: chimeric antibody clone 24-124 (rab600_24_124) (antibody, V domains shown)
VH: QEQLVESGGGLVTLGGSLKLSCKASGIDFSSYGISWVRQAPGKGLEWIAYIYPDYGSTDYATWVNGRFTISLDNAQNTVFLQMTSLTAADTATYFCASGYASSSGYYDPKYFGLWGPGTLVTVSS
VL: IKMTQTPASVSAAVGGTVTINCRASEDIESYLAWYQQKPGQPPKLLIYDASDLASGVPSRVKGSGSGTEFTLTISGVRCDDAATYYCQHGFYTSRSDSVFGGGTEVVVK
B5: chimeric antibody clone 25-10 (rab600_25_10) (antibody, V domains shown)
VH: QSVEESGGRLVAPGTPLTLTCTVSGIDLSRYAMAWVRQAPGKGLEYIGYIDTGDSTYYATWAKGRFTISRTSTTVHLKIASPTTEDTATYFCTNVGVRMYLWGPGTLVTVSS
VL: DVVMTQTPASVEAAVGGTVTIKCQASQSISSYLSWYQQKPGQPPKLLIYRASTLESGVPSRFKGSGSGTEFTLTISDLECADAATYYCQCGYYGGSYIGAFGGGTEVVVK
B6: chimeric antibody clone 25-103 (rab600_25_103) (antibody, V domains shown)
VH: QEQLKESGGGLVTPGTPLTLTCTVSGIDLSSYAMGWVRQAPGKGLEYIGFIDTGGSTYYANWAKGRFTISRTSTTVDLKIASPTTEDAATYFCANVGARMYLWGPGTLVTVSS
VL: B5 VL with K22N, S31N, Y32L, S34A, G91S
B7: chimeric antibody clone 25-31 (rab600_25_31) (antibody, V domains shown)
VH: QEQLKESGGGLVTPGTPLTLTCTASGFSLSSYDMSWVRQAPGKGLEWIGYIWSSGSAYYATWAEGRFTISKTSTTVGLKITSPTTEDTATYFCARRYVGSSYDTWGQGTLVTVSS
VL: AVLTQTPSPVSAAVGGTVTISCQSSQSVSNNNYLSWYQQKPGQPPKLLIYAASYLASGVPPRFSGSGSGTQFTLTISGVQCDDAATYYCLGDYDNDIDHAFGGGTEVVVK
B8: chimeric antibody clone 24-97 (rab600_24_97) (antibody, V domains shown)
VH: QSLEESGGDLVKPGASLTLTCKASGFSFSSGHDMCWVRQAPGKGLEWIACIYPDYDITDYASWVNGRFTISLDNAQNTVFLQMTSLTAADTATYFCARSGYGGFRYGFNLWGPGTLVTVSS
VL: DIVMTQTPASVEVAVGGTVTIKCQASEDIENYLAWYQQKPGQPPKLLIYDASDLTSGVPSRFKGSGSGTQFTLTISDLECADAATYYCQSVYYTSSDNYNNAFGGGTEVVVK
B9: chimeric antibody clone 24-25 (rab600_24_25) (antibody, V domains shown)
VH: QSLEESGGGLVKPEGSLTLTCAVSGFDLNSYYWICWARQAPGKGLEWIACIDGGSTGSAYYASWAKGRLSISKASSTTVTLQMTSLTAADTATYFCARVQSYVGYANYGYPNYFNLWGPGTLVTVSS
VL: IEMTQTPSSVSAAVGGTVTINCQSSEDIDSYLAWYQQKPGQPPKLLIYHASYLTSGVPSRFSGSRSGTEFTLTISDLECDDAATYYCQSAYYSSSADNTFGGGTEVVVK
B10: chimeric antibody clone 24-2 (rab600_24_2) (antibody, V domains shown)
VH: QEQLEESGGGLVQPEGSLALTCKASGFSFSVSYWICWVRQAPGKGLEWIACTDGGDGSSYYASWVNGRFTISKISSTTVTLQMTSLTAADTAIYFCARDRSDVFNLWGPGTLVTVSS
VL: DIVMTQTPASVEAAVGGTVTIKCQAGQSIDSNLAWYQQKPGQPPKLLIYRASTLASGVPSRFKGSGSGTEFALTISDLECADAATYFCQSFYVTISAMVDYPFGGGTEVVVK
B11: chimeric antibody clone 24-62 (rab600_24_62) (antibody, V domains shown)
VH: QSLEESGGDLVVPGTSLTLTCTASGFDLSSFYYMCWVRQAPGKGLEWIACIYAVSSGSTYYASWAKGRFTVSRTSSTTATLQMTSLTAADTATYFCARHQSYETYGYVGVVYATYFSLWGPGTLVTVSS
VL: ALVMTQTPASVSAAVGGTVTINCQASEDIDSYLAWYQQKPGQPPKLLIYYASYLTSGVPSRFKGSGSGTEYTLTISGVQCDDAATYYCQSAFYSNNTETAFGGGTEVVVK

Each binder was assayed against T1, cynomolgus TNFR2-His tagged protein (assay: ELISA, cynomolgus TNFR2).

EC50 | Binder
0.091 nM | B1
0.211 nM | B2
0.34 nM | B3

Each binder was assayed against T2, human TNFR2-His tagged protein (soluble) (assay: ELISA, soluble human TNFR2).

EC50 | Binder
0.142 nM | B1
0.24 nM | B2
0.111 nM | B3

Each binder was assayed against T3, TNFR-Fc (assay: TNF-α blocking ELISA (soluble)).

IC50 | Binder
2.46 nM | B2
3.57 nM | B3

These binders were tested against T2, human TNFR2-His tagged protein (soluble) (assay: ELISA on coated human TNFR2-His).
Protocol: (§1) In FIGS. 3A-3B, human (3A) or cynomolgus (3B) TNFR2-His tagged protein was coated on 96-well ELISA plates at 1 μg/mL and incubated overnight at 4° C. Plates were washed and blocked using 1% BSA. Antibodies were added for 1 hour at room temperature (RT), washed, and detected using anti-Human HRP. Assay was developed using TMB substrate for 3-5 minutes. In FIG. 3C, FACS binding was performed on CHO cells that were engineered to express human TNFR2. Briefly, antibodies were incubated with 200,000 cells in MACS buffer for 1 hour followed by wash and detection using anti-human IgG BV421 for 20 minutes. Samples were analyzed using Cytoflex or MACSQuant flow cytometers. In FIG. 3D, ligand blocking ELISA was performed by coating plates with 1 ug/mL TNFR-Fc overnight at 4° C. Plates were washed, blocked and antibodies were incubated for 1 hr at RT. […] Assay was developed using TMB substrate for 5-7 minutes.

EC50 | Binder
0.137 nM | B4
0.0862 nM | B5
0.0443 nM | B6
0.0704 nM | B7
0.0632 nM | B8
0.21 nM | B9
0.0981 nM | B10
0.137 nM | B11

What follows are binders tested against T1, cynomolgus TNFR2-His tagged protein (assay: ELISA on coated cynomolgus TNFR2-His).
Protocol: as §1

EC50 | Binder
0.0882 nM | B4
0.0235 nM | B5
0.000348 nM | B6
0.038 nM | B7
0.086 nM | B8
0.189 nM | B9
0.0742 nM | B10
0.0958 nM | B11

These binders were tested against T3, TNFR-Fc (assay: TNF-α blocking ELISA on coated TNFR-Fc).
Protocol: as §1

IC50 | Binder
2.54 nM | B4
4.13 nM | B7

These binders were tested against T4, human TNFR2 expressed on cells (assay: flow cytometry, cell-expressed human TNFR2).

EC50 | Binder
1.99 nM | B1
0.28 nM | B2
1.13 nM | B3

Target: T5, TNFR2 CRD4 peptide (peptide 5; aa …)
Assay: peptide-binding ELISA (potential peptide bin)

binding result | Binder
binds | B4
binds | B5
binds | B6
binds | B7
binds | B8
binds | B9
binds | B10
binds | B11

Each binder was assayed against T4, human TNFR2 expressed on cells (assay: cell binding on TNFR2-overexpressing (OE) cells).

Kd | Binder
1.5 nM | B1
0.13 nM | B2

The binders below were run against T4, human TNFR2 expressed on cells (assay: flow cytometry on CHO cells expressing human TNFR2).
Protocol: as §1

EC50 | Binder
0.179 nM | B4
0.513 nM | B5
0.946 nM | B6
3.15 nM | B7

These binders were tested against T6, soluble mouse TNFR2 (assay: binding screen on soluble mouse TNFR2 (mouse cross-reactivity)).

binding result | Binder
no binding | B4
binds | B5
binds | B6
no binding | B7
binds | B8
binds | B9
no binding | B10
binds | B11

The binders below were run against T4, human TNFR2 expressed on cells (assay: blocking of biotinylated TNF-α on TNFR2-CHO cells, flow cytometry).
Protocol: TNFR2-overexpressing CHO cells were plated at 100,000 cells per well. Cells were incubated with the indicated antibodies for 30 minutes on ice. […] Cells were analyzed using Cytoflex or MACSQuant flow cytometer. Assay was repeated twice.

IC50 | Binder
0.379 nM | B2
